Test results taken from patent US20250074980A1 (BRIGHAM AND WOMEN S HOSPITAL, published 2025).

T1: His-tagged CEACAM1 (human, UniProt P13688 35-428)
T1 construct: 45 kDa SPR analyte; also called CEACAM1-HIS; CEACAM1 analyte
T1 sequence: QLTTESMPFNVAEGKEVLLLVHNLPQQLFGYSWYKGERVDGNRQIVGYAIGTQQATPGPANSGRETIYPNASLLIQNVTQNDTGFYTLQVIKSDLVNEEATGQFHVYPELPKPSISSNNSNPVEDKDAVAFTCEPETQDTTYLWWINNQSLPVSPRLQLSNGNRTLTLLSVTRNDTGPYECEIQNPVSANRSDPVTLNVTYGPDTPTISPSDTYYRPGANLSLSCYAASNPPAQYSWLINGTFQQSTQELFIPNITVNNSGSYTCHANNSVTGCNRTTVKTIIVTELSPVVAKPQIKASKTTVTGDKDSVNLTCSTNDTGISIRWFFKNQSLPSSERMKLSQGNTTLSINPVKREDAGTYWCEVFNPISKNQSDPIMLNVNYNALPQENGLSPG


Legend:
His-tagged CEACAM1 [1] = target: T1, His-tagged CEACAM1; assay: SPR single-cycle, IgG captured
Description: As an alternative approach to assess the binding of the 36 antibody combinations and the three control antibodies to CEACAM1, a kinetic analysis was performed on a Biacore T200 (serial no. 1909913) running Biacore T200 Evaluation Software V2.0.1 (Uppsala, Sweden). All experiments were run at 25° C. with HBS-P+ running buffer (pH 7.4) (GE Healthcare, cat. no. BR100671). All kinetic experiments were performed using His-tagged CEACAM1 as the analyte. For all experiments, antibodies were immobilized onto a Series S Protein A sensor chip surface. For kinetic experiments, the amount of immobilized/captured ligand was limited to avoid mass transfer effects at the surface of the chip with the surface ideally having an analyte binding level (Rₘₐₓ) of 50-150 RUs. Using a MW of 45 kDa for the CEACAM1 analyte, 150 kDa for the antibody ligand (estimated value for IgG), 50 RU for Rmax and the stoichiometry (Sm) as 2 due to the ability of each antibody to bind 2 target molecules, a target response level of ˜75 RUs was set for capture of all the sample antibodies.
Single cycle analysis of the 36 antibody combinations and the three control antibodies was performed on purified antibodies (Vκ1 to Vκ6 variants) or on the supernatants of the transiently transfected HEK EBNA cells (Vκ7 to Vκ12 variants). In some instances, where supernatant was not available, purified chimeric antibody VH0/Vκ0 was spiked into HEK EBNA culture medium to use as a positive control. Antibodies were diluted in HBS-P+ to a concentration of 1 μg/ml (as determined by an IgG quantitation ELISA). At the start of each cycle, antibodies were loaded onto Fc2, Fc3 and Fc4 of a protein A chip and IgG captured at a flow rate of 8 μl/min to give an RU of ˜75. The surface was then allowed to stabilize. Single cycle kinetic data was obtained at a flow rate of 50 μl/min to minimize any potential mass transfer effects. Multiple repeats of the chimeric antibody VH0/Vκ0 were performed to check the stability of the surface and analyte over the kinetic cycles. The signal from the reference channel Fc1 (no antibody) was subtracted from that of Fc2, Fc3 and Fc4 to correct for differences in non-specific binding to a reference surface. A 5 point 2-fold dilution range from 3.125 to 50 nM CEACAM1 without regeneration between each concentration was used.

His-tagged CEACAM1 [2] = target: T1, His-tagged CEACAM1; assay: SPR single-cycle, supernatant IgG captured
Description: In order to assess the binding of the humanized, affinity matured reformatted lead IgGs, single-cycle kinetics analysis was performed on crude supernatants using a Biacore T200 running Biacore T200 Control Software V2.0.1 and Biacore T200 Evaluation Software V3.0. Antibodies were diluted in HBS-P+ to a final concentration of 0.5 μg/ml. At the start of each cycle, antibodies were loaded onto Fc2, Fc3 and Fc4 of the Protein A chip. IgGs were captured at a flow rate of 10 μl/min to give an immobilisation level (RL) of ˜100 RU (a level calculated to obtain a Rₘₐₓ of ˜50-150 RU once the analyte is bound). The surface was then allowed to stabilize. Single-cycle kinetics data was obtained with CEACAM1 as the analyte at a flow rate of 80 μl/min to minimize any potential mass transfer effects. Multiple repeats with the parent (VH1/Vκ8 S29A) antibody were performed to check the stability of the surface and analyte over the kinetic cycles. The signal from the reference channel Fc1 (no antibody) was subtracted from that of Fc2, Fc3 and Fc4 to correct for differences in non-specific binding to the reference surface. A three point, two-fold dilution range from 70 nM to 280 nM CEACAM1 without regeneration between each concentration was used. The signal from each antibody blank run (no CEACAM1) was subtracted to correct for differences in surface stability. The association phase for the three injections of increasing concentrations of CEACAM1 was monitored for 80 seconds each time and a single dissociation phase was measured for 150 seconds following the last injection of CEACAM1. Regeneration of the Protein A surface was conducted using two injections of 10 mM glycine-HCL pH 1.5 followed by a stabilization period of 250 seconds.

His-tagged CEACAM1 [3] = target: T1, His-tagged CEACAM1; assay: SPR single-cycle, supernatant IgG captured; remark: listed apart in the source
Summary of the method: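 Antibody IgG was produced by transient PEI transfection of HEK EBNA cells in 6-well plates, with supernatants collected 5-7 days later, quantified by ELISA and filtered. Binding was measured by single-cycle surface plasmon resonance on a Biacore T200 at 25° C in HBS-P+ (pH 7.4), capturing IgG on Protein A and flowing His-tagged CEACAM1 as analyte. Kon, koff and Kd were obtained by fitting, and relative KD was expressed against the parent antibody tested in the same experiment.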

His-tagged CEACAM1 [4] = target: T1, His-tagged CEACAM1; assay: SPR single-cycle, purified IgG captured
Summary of the method: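 Binding was measured by surface plasmon resonance in single-cycle kinetics mode on a Biacore T200, running in HBS-P+ (pH 7.4) at 25° C. His-tagged CEACAM1 served as analyte over purified IgG captured on a Series S Protein A chip. After subtraction of reference-channel and blank-run signals, kon, koff and Kd were fitted, and relative KD was expressed against the parent antibody from the same experiment.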

Row | Binder | binding result (His-tagged CEACAM1 [1]) | Kd (His-tagged CEACAM1 [2]) | koff (His-tagged CEACAM1 [2]) | kon (His-tagged CEACAM1 [2]) | relative KD to parent (His-tagged CEACAM1 [2]) | also measured
1 | VH1/Vκ0 (antibody, IgG4, V domains shown, IgG4 (S241P), kappa; also called VH1/Vκ0 (control)) VH: EVQLLESGGGLVQPGGSLRLSCAASGFIFSSHGMSWVRQAPGKGLEWVATISSGGTYTYYPDSVKGRFTISRDNSKNTLYLQMNSLKAEDTAMYYCARHDFDYDAAWFAYWGQGTLVTVSS VL: QIVLTQSPALMSASPGVKVTMTCSANSSVSYMYWYRQKPRSSPKPWIYLTSNLASGVPARFSGSGSGTSYSLTISSMEAEDAATYYCQQWSSNPPTFGSGTKLEIK | – | – | – | – | – | Kd (His-tagged CEACAM1 [1]): 0.064 µM; relative KD to VH0/Vκ0 (His-tagged CEACAM1 [1]): 1.5
2 | VH2/Vκ6 (antibody, IgG4, V domains shown, IgG4 (S241P), kappa) VH: EVQLLESGGGLVQPGGSLRLSCAASGFIFSSHGMSWVRQAPGKGLEWVATISSGGTYTYYPDSVKGRFTISRDNSKNTLYLQMNSLRAEDTAMYYCARHDFDYDAAWFAYWGQGTLVTVSS VL: DIQLTQSPSFLSASVGDRVTITCRANSSVSYMAWYQQKPGKAPKLLIYLTSNLQSGVPSRFSGSGSGTEFTLTISSLQPEDFATYYCQQWSSNPPTFGQGTKLEIK | no binding (tested: 50 nM) | – | – | – | – | –
3 | VH0/Vκ1 (antibody, IgG4, V domains shown, IgG4 (S241P), kappa; also called VH0/Vκ1 (control)) VH: EVQLVESGGDLVKPGGSLKLACAASGFIFSSHGMSWVRQTPDKRLEWVATISSGGTYTYYPDSVKGRFTISRDNDKNTLYLQMNSLKSEDTAMYYCARHDFDYDAAWFAYWGQGTLVTVSS VL: QIVLTQSPALLSLSPGERATMSCSANSSVSYMYWYRQKPGQAPKPWIYLTSNLASGVPARFSGSGSGTDYTLTISSLEAEDFATYYCQQWSSNPPTFGQGTKLEIK | – | – | – | – | – | Kd (His-tagged CEACAM1 [1]): 0.049 µM; relative KD to VH0/Vκ0 (His-tagged CEACAM1 [1]): 1.2
4 | VH3/Vκ6 (antibody, IgG4, V domains shown, IgG4 (S241P), kappa) VH: EVQLLESGGGLVQPGGSLRLSCAASGFIFSSHGMSWVRQAPGKGLEWVATISSGGTYTYYADSVKGRFTISRDNSKNTLYLQMNSLRAEDTAMYYCARHDFDYDAAWFAYWGQGTLVTVSS VL: DIQLTQSPSFLSASVGDRVTITCRANSSVSYMAWYQQKPGKAPKLLIYLTSNLQSGVPSRFSGSGSGTEFTLTISSLQPEDFATYYCQQWSSNPPTFGQGTKLEIK | no binding (tested: 50 nM) | – | – | – | – | –
5 | 9B3_9E5_8H3/CP08F05 (antibody, IgG4, V domains shown, IgG4 (S241P), kappa) VH: EVQLLESGGGLVQPGGSLRLSCAASGFTFNAHAISWVRQAPGKGLEWVATISSGGTYTYYPDSVKGRFTISRDNSKNTLYLQMNSLKAEDTAMYYCARHGFDYFPYWFAHWGQGTLVTVSS VL: EIVLTQSPATLSLSPGERATLSCRANSAVSYMYWYQQKPGQAPRPWIYLTSNRATGVPARFSGSGSGTDYTLTISSLEPEDFAVYYCQQWTSNPPTFGQGTKLEIK | – | 0.21 µM | 0.018 s⁻¹ | 86000 M⁻¹ s⁻¹ | 2.4 | –
6 | 9B3_9E5_8H3/Vκ8 S29A (antibody, IgG4, V domains shown, IgG4 (S241P), kappa) VH: EVQLLESGGGLVQPGGSLRLSCAASGFTFNAHAISWVRQAPGKGLEWVATISSGGTYTYYPDSVKGRFTISRDNSKNTLYLQMNSLKAEDTAMYYCARHGFDYFPYWFAHWGQGTLVTVSS VL: EIVLTQSPATLSLSPGERATLSCRANSAVSYMYWYQQKPGQAPRPWIYLTSNRATGVPARFSGSGSGTDYTLTISSLEPEDFAVYYCQQWSSNPPTFGQGTKLEIK | – | 0.21 µM | 0.02 s⁻¹ | 95000 M⁻¹ s⁻¹ | 2.4 | –
7 | CP09B03/CP08E05 (antibody, IgG4, V domains shown, IgG4 (S241P), kappa) VH: EVQLLESGGGLVQPGGSLRLSCAASGFTFNAHAISWVRQAPGKGLEWVATISSGGTYTYYPDSVKGRFTISRDNSKNTLYLQMNSLKAEDTAMYYCARHDFDYDAAWFAYWGQGTLVTVSS VL: EIVLTQSPATLSLSPGERATLSCRANSAVSYMYWYQQKPGQAPRPWIYLTSNRATGVPARFSGSGSGTDYTLTISSLEPEDFAVYYCQQWTTNPPTFGQGTKLEIK | – | – | – | – | – | Kd (His-tagged CEACAM1 [3]): 0.097 µM; koff (His-tagged CEACAM1 [3]): 0.01 s⁻¹; kon (His-tagged CEACAM1 [3]): 110000 M⁻¹ s⁻¹; relative KD to parent (His-tagged CEACAM1 [3]): 5.7; Kd (His-tagged CEACAM1 [4]): 0.09 µM; koff (His-tagged CEACAM1 [4]): 0.0096 s⁻¹; kon (His-tagged CEACAM1 [4]): 110000 M⁻¹ s⁻¹; relative KD to parent (His-tagged CEACAM1 [4]): 5.3
8 | 9B3_9E5_8H3/CP08E05 (antibody, IgG4, V domains shown, IgG4 (S241P), kappa) VH: EVQLLESGGGLVQPGGSLRLSCAASGFTFNAHAISWVRQAPGKGLEWVATISSGGTYTYYPDSVKGRFTISRDNSKNTLYLQMNSLKAEDTAMYYCARHGFDYFPYWFAHWGQGTLVTVSS VL: EIVLTQSPATLSLSPGERATLSCRANSAVSYMYWYQQKPGQAPRPWIYLTSNRATGVPARFSGSGSGTDYTLTISSLEPEDFAVYYCQQWTTNPPTFGQGTKLEIK | – | 0.27 µM | 0.022 s⁻¹ | 82000 M⁻¹ s⁻¹ | 1.9 | –

The next lines start with results.

Row | binding result (His-tagged CEACAM1 [1]) | Kd (His-tagged CEACAM1 [2]) | koff (His-tagged CEACAM1 [2]) | kon (His-tagged CEACAM1 [2]) | relative KD to parent (His-tagged CEACAM1 [2]) | Binder | also measured
9 | no binding (tested: 50 nM) | – | – | – | – | VH4/Vκ6 (antibody, IgG4, V domains shown, IgG4 (S241P), kappa) VH: EVQLLESGGGLVQPGGSLRLSCAASGFIFSSHGMSWVRQAPGKGLEWVSTISSGGTYTYYADSVKGRFTISRDNSKNTLYLQMNSLRAEDTAVYYCARHDFDYDAAWFAYWGQGTLVTVSS VL: DIQLTQSPSFLSASVGDRVTITCRANSSVSYMAWYQQKPGKAPKLLIYLTSNLQSGVPSRFSGSGSGTEFTLTISSLQPEDFATYYCQQWSSNPPTFGQGTKLEIK | –
10 | – | 0.15 µM | 0.021 s⁻¹ | 140000 M⁻¹ s⁻¹ | 3.8 | 9B3_9E5/Vκ8 S29A (antibody, IgG4, V domains shown, IgG4 (S241P), kappa) VH: EVQLLESGGGLVQPGGSLRLSCAASGFTFNAHAISWVRQAPGKGLEWVATISSGGTYTYYPDSVKGRFTISRDNSKNTLYLQMNSLKAEDTAMYYCARHGFDYDAAWFAYWGQGTLVTVSS VL: EIVLTQSPATLSLSPGERATLSCRANSAVSYMYWYQQKPGQAPRPWIYLTSNRATGVPARFSGSGSGTDYTLTISSLEPEDFAVYYCQQWSSNPPTFGQGTKLEIK | –
11 | no binding (tested: 50 nM) | – | – | – | – | VH1/Vκ6 (antibody, IgG4, V domains shown, IgG4 (S241P), kappa) VH: EVQLLESGGGLVQPGGSLRLSCAASGFIFSSHGMSWVRQAPGKGLEWVATISSGGTYTYYPDSVKGRFTISRDNSKNTLYLQMNSLKAEDTAMYYCARHDFDYDAAWFAYWGQGTLVTVSS VL: DIQLTQSPSFLSASVGDRVTITCRANSSVSYMAWYQQKPGKAPKLLIYLTSNLQSGVPSRFSGSGSGTEFTLTISSLQPEDFATYYCQQWSSNPPTFGQGTKLEIK | –
